Data from patent US20100098630A1, “Phenazine and Quinoxaline Substituted Amino Acids and Polypeptides” (AMBRX, INC., priority 2006, published 2010).

Biological target: T1, GH receptor-producing cells (Homo sapiens, UniProt P10912)
T1 sequence (P10912 19-638): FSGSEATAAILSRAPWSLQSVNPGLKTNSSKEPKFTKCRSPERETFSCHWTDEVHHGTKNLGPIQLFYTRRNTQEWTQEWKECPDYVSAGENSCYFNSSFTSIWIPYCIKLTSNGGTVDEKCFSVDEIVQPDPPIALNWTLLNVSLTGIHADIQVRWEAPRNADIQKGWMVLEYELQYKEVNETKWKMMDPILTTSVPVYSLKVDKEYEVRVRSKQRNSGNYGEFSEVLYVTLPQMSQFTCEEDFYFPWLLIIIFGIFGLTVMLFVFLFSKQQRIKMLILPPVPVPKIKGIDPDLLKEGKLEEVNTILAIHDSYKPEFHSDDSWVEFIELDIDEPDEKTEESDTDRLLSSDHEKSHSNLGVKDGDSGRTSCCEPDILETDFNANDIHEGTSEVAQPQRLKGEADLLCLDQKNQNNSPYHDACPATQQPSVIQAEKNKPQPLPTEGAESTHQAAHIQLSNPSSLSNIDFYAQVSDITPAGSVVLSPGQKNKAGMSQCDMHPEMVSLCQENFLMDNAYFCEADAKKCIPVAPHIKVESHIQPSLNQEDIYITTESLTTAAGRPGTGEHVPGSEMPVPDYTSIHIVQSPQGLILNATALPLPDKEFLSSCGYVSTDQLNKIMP
Test: Cell binding assays (competition with 125I-GH)
Details: unlabeled competitor, 0° C., 90 minutes
Method: Cells are then resuspended and layered over 200 μl ice cold FCS in a 350 μl plastic centrifuge tube and centrifuged (1000 g; […]). The pellet is collected by cutting off the end of the tube and pellet and supernatant counted separately in a gamma counter (Packard).
Specific binding (cpm) is determined as total binding in the absence of a competitor (mean of duplicates) minus binding (cpm) in the presence of 100-fold excess of unlabeled GH (non-specific binding). The non-specific binding is measured for each of the cell types used.

GM-CSF: granulocyte-macrophage colony stimulating factor, negative control
inhibition of 125I-GH binding: not
